Measured values: the supplement of paper PMC9170038

System: K4 kissing-loop RNA reporter
Test: apparent KD of K4 kissing-loop reporter; higher = weaker reporter binding
Settings: Eterna round: R107
Method: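 RNA-MaP round R107: designed RNA switches with theophylline, tryptophan, arginine or FMN aptamers are transcribed on-chip within common flanks. They are titrated with a labelled K4 kissing-loop RNA reporter in RNA-MaP buffer (100 mM Tris pH 7.5, 80 mM KCl, 4 mM MgCl2), without ligand or with the indicated ligand. Median apparent KD per design.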

[1] = input ligand: theophylline 20 uM
[2] = input ligand: tryptophan 2.4 mM
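Note: bound reporter read as fluorescence of individual clusters on recovered sequencing chips by microscopy, with normalized cluster intensities fitted with a binding model.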

Sequence | apparent KD of K4 kissing-loop reporter (input ligand: FMN 200 uM) | apparent KD of K4 kissing-loop reporter (input ligand: arginine 13.2 mM) | apparent KD of K4 kissing-loop reporter (input ligand: none) | apparent KD of K4 kissing-loop reporter [1] | apparent KD of K4 kissing-loop reporter [2]
UACUGGGCGAGUGAUGUUUGCUCAUGUGAUACCAGUGCCAUCCAACACCCUUGGCAGCAUGCGGGCAGUGAUGUUGUCCAUGGAA [Exclusion Theophylline A GF10] | 629 nM | 597 nM | 667 nM | 645 nM | 640 nM
UACUUUAAUUUAUAACUAUCUUUAUUUUGUCAGGAUAUCGUAUUGUCGAGAAGGGACUCUCUCAAGUGAUGUUUGAGAAAUCGUU [JR_SSFMNA_Sub024] | 84.8 nM | 125 nM | 115 nM | 133 nM | 87.9 nM
UAGAGUCACAAGACAGUGAUGUUGUCUACUGAGGAUAUCAUGAAUAUGAGAAGGCAGUGUUGGAGGUCUCUAACAACAGACUCUG [FMN A SS t3] | 237 nM | 227 nM | 389 nM | 370 nM | 280 nM
UAGGGCAUCGCAGGAUAUCCUGCUUAACGUUGGAUUCCAGUGAUGUUGGAAAGCCGGCCUAGGGUAGGAGAAGGGCGGACUUGAA [Riteteve] | 160 nM | 167 nM | 167 nM | 187 nM | 242 nM
UAGUCCUAGUGAUCCUUAUCAAGUGGUGGGCGAGGACCGGUACGGCCGCCACUCGACUAUGCAGUGAUGUUGCAAUCCGGACAAU [Exclusion - Tryptophan A (Freestyle 13)] | 191 nM | 211 nM | 194 nM | 243 nM | 179 nM
UAGUUGCCGGUUUGUAGGCUUCGGCAGUGGGAGGAUAUGUUGACCGACAGAAGGCCCAGUGAUGUUGGGCGAUUGGCGGUGAGAU [Antebear] | 50 nM | 78.3 nM | 145 nM |  | 123 nM
UAUACUAGACAAGAGAGAAUUCUCUCAAGAGAGGAUAUCCGAAUUCGGAGAAGGCUCGCUAAGUGAUGUUUGGAAUAGUCUAGAA [AK4 SS FMN A] | 418 nM | 352 nM | 339 nM | 319 nM | 384 nM
UAUACUAGACAAGAGAGAAUUCUCUCAAGAGAGGAUAUCCGAAUUCGGAGAAGGCUCUCUAAGUGAUGUUUGGAAUAGUCUAGAA [AK5 SS FMN A] | 660 nM | 448 nM | 737 nM | 500 nM | 500 nM
UAUAGCGUCAGAAGGAGCGUGAGUAUAACAUGGCUGGAGUGAUGUUCCAGGAGUUAAUACUCACAGGUAGGUCGCUGACUCCUGG [Arg B SS t2] | 173 nM | 125 nM | 92.8 nM | 150 nM | 174 nM
UAUGAAGGUGGAGGAUAUUGAUUGAAUCUUGGUCAGGAGUGAUGUUCCGGGAAGCCUUGGAUUCAUCGAGAAGGCCAAGGAUAGU [Extra 3] | 123 nM | 344 nM | 344 nM | 330 nM | 327 nM
UAUGUACACGGGUAGUUGUACAUCGAGGAAGGAGCGUGCGCAGGCACAGGUAGGUCGCCUCAGCGCACGAGUGAUGUUCGUGGGC [Xexegeus] | 276 nM | 170 nM | 257 nM | 216 nM | 247 nM
UAUGUCAUUCUCGACGGAGUGAUGUUCCGACGAGGACCGGUACGGCCGCCACUCGGCAGAAUUGAGUCUGUGAUCCUAGAUCAAU [theeternabot_exclusion_KL_Trp_A_44] | 120 nM | 99.3 nM | 116 nM | 103 nM | 200 nM
UAUUGCCACAGAGUGAUGUUCUGGCCGGAUACCAGCAUGCAAUUAUGCCCUUGGCAGCCGGAUGCGCGUCCAGCCACCGGGCCUG [theeternabot_exclusion_KL_Theo_A_29] | 1510 nM | 783 nM | 1310 nM | 1280 nM | 1140 nM
UAUUUAGUGACGGCCGCCACUAUGGUGAUUUAUUUGUUUGAGUGAUGUUUUGAUGUUUGAUUUUGUAGGACCGGGUUAUGUGUUG [yyycmullin] | 891 nM | 688 nM | 818 nM | 752 nM | 595 nM
UCAUGUGCCAGUGAUGUUGGCGUACGUGAUACCAGACGAAUAAAAGUCCCUUGGCAGCACAAAUAAGCCAAGAUAGAUGAAUGAU [Exclusion Theophylline A GF 1] | 130 nM | 125 nM | 132 nM | 137 nM | 116 nM
UCCAAGGACGAACCGGUAUGAUCACCGGAUACCAGAGGCGAAAGCCUCCCUUGGCAGCCGAGUGUAGUGAUGUUACACUGGUUCU | 89.8 nM | 82.8 nM | 90.7 nM | 94.5 nM | 91.5 nM
UCGCAAAAGUCGGCCGCCACUCCGGGCCCUAUAAAUGGGCGCAGUGAUGUUGCGGCUAGGCCUCUGAGGACCGGGACUUUGUAGC [Tixelequ] | 221 nM | 119 nM | 58.9 nM | 142 nM | 156 nM
UCGUCUGUGUGAGGAUAUCCAAGCGAGCUGCGUACAGGUGCGGCGUUUGGAGUGAUGUUCCAGGCAGGAGAAGGCGCACGGGCUU [Esored] | 191 nM | 247 nM | 284 nM | 285 nM | 251 nM
